This passage reports reverse-splicing fitness results from the RNAGym collection of RNA variant scans (doi:10.1093/molbev/msab373).

The chains are these.
B1: Azoarcus group I ribozyme (parent)
chain: GUGCCUUGCGCCGGGAAACCACGCAAGGGAUGGUGUCAAAUUCGGCGAAACCUAAGCGCCCGCCCGGGCGUAUGGCAACGCCGAGCCAAGCUUCGGCGCCUGCGCCGAUGAAGGUGUAGAGACUAGACGGCACCCACCUAAGGCAAACGCUAUGGUGAAGGCAUAGUCCAGGGAGUGGCGAAAGUCACACAAACCGG

The data set covers variants of B1. As to the kind of experiment: reverse-splicing fitness (ratio to wild type); higher = more active; in vitro selection; Mg2+ level not given. In short, it runs like this: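 An in vitro group I ribozyme library with randomized positions was T7-transcribed and gel-purified. In triplicate, 10 pmol RNA in EPPS pH 7.5 was reacted with 50 pmoles of a 30-nt RNA substrate for 1 h at 37 °C across several added MgCl2 levels (1–48 mM), then stopped with EDTA. Products were reverse transcribed from a substrate-complementary primer, PCR-amplified and sequenced (HiSeq 4000). Fitness is a variant's read proportion after selection over that before, normalised to wild type.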
Regarding GUGCCUUGCGCCGGGAAACCACGCAAGGGAUGGUGUCAAAUUCGGCGAAACCUAAGCGCCCGCCCGGGCGUAUGGCAACGCAGAGCCAAGCUUCGGCGCCUGCGCCGAUGAAGGUGUAGGGACUAGACGGCACCCACCUAAGGCCAACGUUAUGGUGAAGGCAUAGUCAAGGGAGUGGCGAAAGUCACACAAACCGG, the reverse-splicing fitness is 0.00915.
The same measure for GUGCCUUGCGCCGGGAAACCACGCAAGGGAUGGUGUCAAAUUCGGCGAAACCUAAGCGCCCGCCCGGGCGUAUGGCAACGCAGAGCCAAGCUUCGGCGCCUGCGCCGAUGAAGGUGUAGGGACUAGACGGCACCCACCUAAGGCCAACGGUAUGGUGAAGGCAUAGUCUAGGGAGCGGCGAAAGUCACACAAACCGG: 0.0123; for GUGCCUUGCGCCGGGAAACCACGCAAGGGAUGGUGUCAAAUUCGGCGAAACCUAAGCGCCCGCCCGGGCGUAUGGCAACGCAGAGCCAAGCUUCGGCGCCUGCGCCGAUGAAGGUGUAGGGACUAGACGGCACCCACCUAAGGCCAACGGUAUGGUGAAGGCAUAGUCUAGGGAGAGGCGAAAGUCACACAAACCGG: 0.0158; for GUGCCUUGCGCCGGGAAACCACGCAAGGGAUGGUGUCAAAUUCGGCGAAACCUAAGCGCCCGCCCGGGCGUAUGGCAACGCAGAGCCAAGCUUCGGCGCCUGCGCCGAUGAAGGUGUAGGGACUAGACGGCACCCACCUAAGGCCAACGGUAUGGUGAAGGCAUAGUCUAGGGAGGGGCGAAAGUCACACAAACCGG: 0.00438.
With GUGCCUUGCGCCGGGAAACCACGCAAGGGAUGGUGUCAAAUUCGGCGAAACCUAAGCGCCCGCCCGGGCGUAUGGCAACGCAGAGCCAAGCUUCGGCGCCUGCGCCGAUGAAGGUGUAGGGACUAGACGGCACCCACCUAAGGCCAACGAUAUGGUGAAGGCAUAGUCUAGGGAGCGGCGAAAGUCACACAAACCGG the figure was 0.0107; with GUGCCUUGCGCCGGGAAACCACGCAAGGGAUGGUGUCAAAUUCGGCGAAACCUAAGCGCCCGCCCGGGCGUAUGGCAACGCAGAGCCAAGCUUCGGCGCCUGCGCCGAUGAAGGUGUAGGGACUAGACGGCACCCACCUAAGGCCAACGAUAUGGUGAAGGCAUAGUCUAGGGAGGGGCGAAAGUCACACAAACCGG, 0.00478; with GUGCCUUGCGCCGGGAAACCACGCAAGGGAUGGUGUCAAAUUCGGCGAAACCUAAGCGCCCGCCCGGGCGUAUGGCAACGCAGAGCCAAGCUUCGGCGCCUGCGCCGAUGAAGGUGUAGGGACUAGACGGCACCCACCUAAGGCCAACGAUAUGGUGAAGGCAUAGUCUAGGGAGAGGCGAAAGUCACACAAACCGG, 0.0192.
Turning to GUGCCUUGCGCCGGGAAACCACGCAAGGGAUGGUGUCAAAUUCGGCGAAACCUAAGCGCCCGCCCGGGCGUAUGGCAACGCAGAGCCAAGCUUCGGCGCCUGCGCCGAUGAAGGUGUAGGGACUAGACGGCACCCACCUAAGGCCAACGUUAUGGUGAAGGCAUAGUCAAGGGAGAGGCGAAAGUCACACAAACCGG, the reverse-splicing fitness came out at 0.0121.
Turning to GUGCCUUGCGCCGGGAAACCACGCAAGGGAUGGUGUCAAAUUCGGCGAAACCUAAGCGCCCGCCCGGGCGUAUGGCAACGCAGAGCCAAGCUUCGGCGCCUGCGCCGAUGAAGGUGUAGGGACUAGACGGCACCCACCUAAGGCCAACGUUAUGGUGAAGGCAUAGUCAAGGGAGGGGCGAAAGUCACACAAACCGG, the reverse-splicing fitness amounted to 0.00425.
The same measure for GUGCCUUGCGCCGGGAAACCACGCAAGGGAUGGUGUCAAAUUCGGCGAAACCUAAGCGCCCGCCCGGGCGUAUGGCAACGCAGAGCCAAGCUUCGGCGCCUGCGCCGAUGAAGGUGUAGGGACUAGACGGCACCCACCUAAGGCCAACGUUAUGGUGAAGGCAUAGUCAAGGGAGCGGCGAAAGUCACACAAACCGG: 0.00527; for GUGCCUUGCGCCGGGAAACCACGCAAGGGAUGGUGUCAAAUUCGGCGAAACCUAAGCGCCCGCCCGGGCGUAUGGCAACGCAGAGCCAAGCUUCGGCGCCUGCGCCGAUGAAGGUGUAGGGACUAGACGGCACCCACCUAAGGCCAACGGUAUGGUGAAGGCAUAGUCUAGGGAGUGGCGAAAGUCACACAAACCGG: 0.00806.
The same measure for GUGCCUUGCGCCGGGAAACCACGCAAGGGAUGGUGUCAAAUUCGGCGAAACCUAAGCGCCCGCCCGGGCGUAUGGCAACGCAGAGCCAAGCUUCGGCGCCUGCGCCGAUGAAGGUGUAGGGACUAGACGGCACCCACCUAAGGCCAACGGUAUGGUGAAGGCAUAGUCGAGGGAGUGGCGAAAGUCACACAAACCGG: 0.00899; for GUGCCUUGCGCCGGGAAACCACGCAAGGGAUGGUGUCAAAUUCGGCGAAACCUAAGCGCCCGCCCGGGCGUAUGGCAACGCAGAGCCAAGCUUCGGCGCCUGCGCCGAUGAAGGUGUAGGGACUAGACGGCACCCACCUAAGGCCAACGGUAUGGUGAAGGCAUAGUCAAGGGAGUGGCGAAAGUCACACAAACCGG: 0.00915.
With GUGCCUUGCGCCGGGAAACCACGCAAGGGAUGGUGUCAAAUUCGGCGAAACCUAAGCGCCCGCCCGGGCGUAUGGCAACGCAGAGCCAAGCUUCGGCGCCUGCGCCGAUGAAGGUGUAGGGACUAGACGGCACCCACCUAAGGCCAACGAUAUGGUGAAGGCAUAGUCGAGGGAGCGGCGAAAGUCACACAAACCGG the figure was 0.0138; with GUGCCUUGCGCCGGGAAACCACGCAAGGGAUGGUGUCAAAUUCGGCGAAACCUAAGCGCCCGCCCGGGCGUAUGGCAACGCAGAGCCAAGCUUCGGCGCCUGCGCCGAUGAAGGUGUAGGGACUAGACGGCACCCACCUAAGGCCAACGAUAUGGUGAAGGCAUAGUCGAGGGAGGGGCGAAAGUCACACAAACCGG, 0.00464; with GUGCCUUGCGCCGGGAAACCACGCAAGGGAUGGUGUCAAAUUCGGCGAAACCUAAGCGCCCGCCCGGGCGUAUGGCAACGCAGAGCCAAGCUUCGGCGCCUGCGCCGAUGAAGGUGUAGGGACUAGACGGCACCCACCUAAGGCCAACGGUAUGGUGAAGGCAUAGUCCAGGGAGUGGCGAAAGUCACACAAACCGG, 0.0075.
With GUGCCUUGCGCCGGGAAACCACGCAAGGGAUGGUGUCAAAUUCGGCGAAACCUAAGCGCCCGCCCGGGCGUAUGGCAACGCAGAGCCAAGCUUCGGCGCCUGCGCCGAUGAAGGUGUAGGGACUAGACGGCACCCACCUAAGGCCAACGUUAUGGUGAAGGCAUAGUCCAGGGAGUGGCGAAAGUCACACAAACCGG, the reverse-splicing fitness is 0.0107.
Regarding GUGCCUUGCGCCGGGAAACCACGCAAGGGAUGGUGUCAAAUUCGGCGAAACCUAAGCGCCCGCCCGGGCGUAUGGCAACGCAGAGCCAAGCUUCGGCGCCUGCGCCGAUGAAGGUGUAGGGACUAGACGGCACCCACCUAAGGCCAACGGUAUGGUGAAGGCAUAGUCCAGGGAGAGGCGAAAGUCACACAAACCGG, the reverse-splicing fitness turned out to be 0.00476.
The same measure for GUGCCUUGCGCCGGGAAACCACGCAAGGGAUGGUGUCAAAUUCGGCGAAACCUAAGCGCCCGCCCGGGCGUAUGGCAACGCAGAGCCAAGCUUCGGCGCCUGCGCCGAUGAAGGUGUAGGGACUAGACGGCACCCACCUAAGGCCAACGGUAUGGUGAAGGCAUAGUCCAGGGAGGGGCGAAAGUCACACAAACCGG: 0.00304; for GUGCCUUGCGCCGGGAAACCACGCAAGGGAUGGUGUCAAAUUCGGCGAAACCUAAGCGCCCGCCCGGGCGUAUGGCAACGCAGAGCCAAGCUUCGGCGCCUGCGCCGAUGAAGGUGUAGGGACUAGACGGCACCCACCUAAGGCCAACGGUAUGGUGAAGGCAUAGUCCAGGGAGCGGCGAAAGUCACACAAACCGG: 0.00686; for GUGCCUUGCGCCGGGAAACCACGCAAGGGAUGGUGUCAAAUUCGGCGAAACCUAAGCGCCCGCCCGGGCGUAUGGCAACGCAGAGCCAAGCUUCGGCGCCUGCGCCGAUGAAGGUGUAGGGACUAGACGGCACCCACCUAAGGCCAACGGUAUGGUGAAGGCAUAGUCGAGGGAGAGGCGAAAGUCACACAAACCGG: 0.00918.
For the variant GUGCCUUGCGCCGGGAAACCACGCAAGGGAUGGUGUCAAAUUCGGCGAAACCUAAGCGCCCGCCCGGGCGUAUGGCAACGCAGAGCCAAGCUUCGGCGCCUGCGCCGAUGAAGGUGUAGGGACUAGACGGCACCCACCUAAGGCCAACGGUAUGGUGAAGGCAUAGUCGAGGGAGGGGCGAAAGUCACACAAACCGG, the reverse-splicing fitness came out at 0.00341.
With GUGCCUUGCGCCGGGAAACCACGCAAGGGAUGGUGUCAAAUUCGGCGAAACCUAAGCGCCCGCCCGGGCGUAUGGCAACGCAGAGCCAAGCUUCGGCGCCUGCGCCGAUGAAGGUGUAGGGACUAGACGGCACCCACCUAAGGCCAACGGUAUGGUGAAGGCAUAGUCGAGGGAGCGGCGAAAGUCACACAAACCGG, the reverse-splicing fitness worked out at 0.00676.
The same measure for GUGCCUUGCGCCGGGAAACCACGCAAGGGAUGGUGUCAAAUUCGGCGAAACCUAAGCGCCCGCCCGGGCGUAUGGCAACGCAGAGCCAAGCUUCGGCGCCUGCGCCGAUGAAGGUGUAGGGACUAGACGGCACCCACCUAAGGCCAACGGUAUGGUGAAGGCAUAGUCAAGGGAGGGGCGAAAGUCACACAAACCGG: 0.00399.
The same measure for GUGCCUUGCGCCGGGAAACCACGCAAGGGAUGGUGUCAAAUUCGGCGAAACCUAAGCGCCCGCCCGGGCGUAUGGCAACGCAGAGCCAAGCUUCGGCGCCUGCGCCGAUGAAGGUGUAGGGACUAGACGGCACCCACCUAAGGCCAACGGUAUGGUGAAGGCAUAGUCAAGGGAGCGGCGAAAGUCACACAAACCGG: 0.00611; for GUGCCUUGCGCCGGGAAACCACGCAAGGGAUGGUGUCAAAUUCGGCGAAACCUAAGCGCCCGCCCGGGCGUAUGGCAACGCAGAGCCAAGCUUCGGCGCCUGCGCCGAUGAAGGUGUAGGGACUAGACGGCACCCACCUAAGGCCAACGGUAUGGUGAAGGCAUAGUCAAGGGAGAGGCGAAAGUCACACAAACCGG: 0.00899; for GUGCCUUGCGCCGGGAAACCACGCAAGGGAUGGUGUCAAAUUCGGCGAAACCUAAGCGCCCGCCCGGGCGUAUGGCAACGCAGAGCCAAGCUUCGGCGCCUGCGCCGAUGAAGGUGUAGGGACUAGACGGCACCCACCUAAGGCCAACGAUAUGGUGAAGGCAUAGUCUAGGGAGUGGCGAAAGUCACACAAACCGG: 0.00736.
The same measure for GUGCCUUGCGCCGGGAAACCACGCAAGGGAUGGUGUCAAAUUCGGCGAAACCUAAGCGCCCGCCCGGGCGUAUGGCAACGCAGAGCCAAGCUUCGGCGCCUGCGCCGAUGAAGGUGUAGGGACUAGACGGCACCCACCUAAGGCCAACGAUAUGGUGAAGGCAUAGUCCAGGGAGCGGCGAAAGUCACACAAACCGG: 0.00806.
Consider GUGCCUUGCGCCGGGAAACCACGCAAGGGAUGGUGUCAAAUUCGGCGAAACCUAAGCGCCCGCCCGGGCGUAUGGCAACGCAGAGCCAAGCUUCGGCGCCUGCGCCGAUGAAGGUGUAGGGACUAGACGGCACCCACCUAAGGCCAACGAUAUGGUGAAGGCAUAGUCCAGGGAGGGGCGAAAGUCACACAAACCGG, for which the reverse-splicing fitness amounted to 0.00435.
With GUGCCUUGCGCCGGGAAACCACGCAAGGGAUGGUGUCAAAUUCGGCGAAACCUAAGCGCCCGCCCGGGCGUAUGGCAACGCAGAGCCAAGCUUCGGCGCCUGCGCCGAUGAAGGUGUAGGGACUAGACGGCACCCACCUAAGGCCAACGAUAUGGUGAAGGCAUAGUCCAGGGAGAGGCGAAAGUCACACAAACCGG the figure was 0.00995.
